Experiments:
[1] = molecular target: T1, mouse vascular endothelial growth factor receptor-2 Fc chimera (Flk-1-Fc) (mouse, UniProt P35918 20-762); assay: radioactive equilibrium binding assay, % of input at 1 nM Flk-1-Fc
T1 construct: Purchased from R&D Systems; also called mouse VEGF-R2; not shown: Fc portion of the purchased chimera is not described
T1 sequence (P35918 20-762, change not shown): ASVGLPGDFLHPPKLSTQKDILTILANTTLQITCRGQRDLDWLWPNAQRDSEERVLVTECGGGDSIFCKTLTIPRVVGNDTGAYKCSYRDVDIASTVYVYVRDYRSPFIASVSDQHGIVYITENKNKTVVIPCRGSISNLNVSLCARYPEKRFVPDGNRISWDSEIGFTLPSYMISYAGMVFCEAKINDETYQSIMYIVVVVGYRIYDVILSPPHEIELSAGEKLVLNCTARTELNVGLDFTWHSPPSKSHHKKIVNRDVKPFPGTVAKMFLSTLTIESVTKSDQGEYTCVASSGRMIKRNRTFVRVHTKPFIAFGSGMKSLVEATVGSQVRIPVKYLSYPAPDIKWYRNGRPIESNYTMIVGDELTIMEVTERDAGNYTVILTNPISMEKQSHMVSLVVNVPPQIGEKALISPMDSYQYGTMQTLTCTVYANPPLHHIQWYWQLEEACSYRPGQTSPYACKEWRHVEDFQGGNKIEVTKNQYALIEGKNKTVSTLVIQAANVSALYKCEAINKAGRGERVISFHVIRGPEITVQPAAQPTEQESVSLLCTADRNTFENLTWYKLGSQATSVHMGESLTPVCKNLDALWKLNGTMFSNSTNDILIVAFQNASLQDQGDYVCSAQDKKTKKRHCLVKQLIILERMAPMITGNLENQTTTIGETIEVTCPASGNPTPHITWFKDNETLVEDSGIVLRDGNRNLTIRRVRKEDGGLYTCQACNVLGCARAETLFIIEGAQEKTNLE

[2] = molecular target: T2, human vascular endothelial growth factor receptor-2 Fc chimera (KDR-Fc) (human, UniProt P35968 20-764); assay: radioactive equilibrium binding, 1 nM KDR-Fc
T2 construct: range 1-764; bought from R&D Systems; stated range 1-764 counts from the first residue of the precursor; also called human VEGF-R2-Fc; not shown: human IgG1 Fc
Procedure: (§1) To prepare ³⁵S-labeled binding proteins for analysis, mRNA was prepared as described above for RNA-protein fusion production but the linker ligation step was omitted. The mRNA was expressed using rabbit reticulocyte lysate translation kit (Ambion) in the presence of ³⁵S-labeled Met at 30° C. for 1 hour. Expressed protein was purified on M2-agarose Flag beads (Sigma) as described above. This procedure produced the encoded protein without the nucleic acid tail. In a direct binding assay, VEGF-R2-Fc fusions in concentrations ranging from 0 to 200 nM were added to a constant concentration of the purified protein (0.2 or 0.5 nM) and incubated at 30° C. for 1 hour in buffer B. The receptor-binder complexes were captured using Protein A magnetic beads for another 10 minutes at room temperature using a Kingfisher™. The beads were washed with six reaction volumes of buffer B. The protein was eluted from the beads with 100 μL of 0.1 M KOH. 50 μL of the reaction mixture and elution were dried onto a LumaPlate-96 (Packard) and the amount of ³⁵S on the plate was measured using a TopCount NXT instrument (Packard). The amount of fibronectin-based scaffold protein bound to the target was estimated as a percent of radioactivity eluted from Protein A magnetic beads compare to radioactivity in the reaction mixture. Nonspecific binding of fibronectin-based scaffold proteins to the beads was determined by measuring binding in the absence of KDR-Fc and represented less than 1-2% of the input. Specific binding was obtained through subtraction of nonspecific binding from total binding. Data was analyzed using the GraphPad Prizm software (GraphPad Software, Inc, San Diego, Calif.), fitted using a one site, non-linear binding equation.
T2 sequence (P35968 20-764 limits assumed, change not shown, form in doubt): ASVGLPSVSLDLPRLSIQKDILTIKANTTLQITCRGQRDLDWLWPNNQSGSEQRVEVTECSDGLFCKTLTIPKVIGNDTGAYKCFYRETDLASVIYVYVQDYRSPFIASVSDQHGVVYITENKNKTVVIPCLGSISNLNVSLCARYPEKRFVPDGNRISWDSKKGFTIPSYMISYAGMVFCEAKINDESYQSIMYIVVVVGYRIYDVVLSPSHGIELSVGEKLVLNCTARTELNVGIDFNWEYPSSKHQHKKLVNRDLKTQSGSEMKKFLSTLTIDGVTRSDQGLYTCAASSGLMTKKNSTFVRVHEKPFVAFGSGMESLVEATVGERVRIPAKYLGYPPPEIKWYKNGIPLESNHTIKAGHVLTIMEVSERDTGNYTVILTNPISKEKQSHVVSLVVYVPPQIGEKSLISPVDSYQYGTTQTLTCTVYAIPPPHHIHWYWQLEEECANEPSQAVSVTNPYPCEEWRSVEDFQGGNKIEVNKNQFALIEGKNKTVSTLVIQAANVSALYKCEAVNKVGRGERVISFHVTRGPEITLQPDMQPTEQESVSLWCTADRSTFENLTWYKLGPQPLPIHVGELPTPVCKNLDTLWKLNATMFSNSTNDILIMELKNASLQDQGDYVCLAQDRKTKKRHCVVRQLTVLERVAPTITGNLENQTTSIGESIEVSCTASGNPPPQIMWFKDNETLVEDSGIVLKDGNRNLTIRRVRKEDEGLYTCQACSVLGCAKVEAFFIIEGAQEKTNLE

[3] = molecular target: T3, human vascular endothelial growth factor receptor-2 Fc chimera (KDR-Fc) (human, UniProt P35968 20-764); assay: radioactive equilibrium binding, 1 nM KDR-Fc
T3 construct: range 1-764; Bought from R&D Systems; limits 1-764 are stated for the selection target; also called human VEGFR-2; not shown: human IgG1 Fc
Procedure: as §1
T3 sequence (P35968 20-764 limits assumed, change not shown, form in doubt): as above

[4] = molecular target: T4, mouse vascular endothelial growth factor receptor-2 Fc chimera (Flk-1-Fc) (mouse, UniProt P35918 20-762); assay: radioactive equilibrium binding, 1 nM Flk-1-Fc
T4 construct: Bought from R&D Systems; also called mouse VEGFR-2; Fc part of the bought chimera not given
Procedure: as §1
T4 sequence (P35918 20-762, change not shown): as the sequence (P35918 20-762, change not shown) above

[5] = molecular target: T5, full-length human KDR on cells (human, UniProt P35968 20-1356); assay: flow cytometry on CHO KDR cells
T5 construct: whole, on cells; also called CHO KDR; CHO-KDR
T5 sequence (P35968 20-1356): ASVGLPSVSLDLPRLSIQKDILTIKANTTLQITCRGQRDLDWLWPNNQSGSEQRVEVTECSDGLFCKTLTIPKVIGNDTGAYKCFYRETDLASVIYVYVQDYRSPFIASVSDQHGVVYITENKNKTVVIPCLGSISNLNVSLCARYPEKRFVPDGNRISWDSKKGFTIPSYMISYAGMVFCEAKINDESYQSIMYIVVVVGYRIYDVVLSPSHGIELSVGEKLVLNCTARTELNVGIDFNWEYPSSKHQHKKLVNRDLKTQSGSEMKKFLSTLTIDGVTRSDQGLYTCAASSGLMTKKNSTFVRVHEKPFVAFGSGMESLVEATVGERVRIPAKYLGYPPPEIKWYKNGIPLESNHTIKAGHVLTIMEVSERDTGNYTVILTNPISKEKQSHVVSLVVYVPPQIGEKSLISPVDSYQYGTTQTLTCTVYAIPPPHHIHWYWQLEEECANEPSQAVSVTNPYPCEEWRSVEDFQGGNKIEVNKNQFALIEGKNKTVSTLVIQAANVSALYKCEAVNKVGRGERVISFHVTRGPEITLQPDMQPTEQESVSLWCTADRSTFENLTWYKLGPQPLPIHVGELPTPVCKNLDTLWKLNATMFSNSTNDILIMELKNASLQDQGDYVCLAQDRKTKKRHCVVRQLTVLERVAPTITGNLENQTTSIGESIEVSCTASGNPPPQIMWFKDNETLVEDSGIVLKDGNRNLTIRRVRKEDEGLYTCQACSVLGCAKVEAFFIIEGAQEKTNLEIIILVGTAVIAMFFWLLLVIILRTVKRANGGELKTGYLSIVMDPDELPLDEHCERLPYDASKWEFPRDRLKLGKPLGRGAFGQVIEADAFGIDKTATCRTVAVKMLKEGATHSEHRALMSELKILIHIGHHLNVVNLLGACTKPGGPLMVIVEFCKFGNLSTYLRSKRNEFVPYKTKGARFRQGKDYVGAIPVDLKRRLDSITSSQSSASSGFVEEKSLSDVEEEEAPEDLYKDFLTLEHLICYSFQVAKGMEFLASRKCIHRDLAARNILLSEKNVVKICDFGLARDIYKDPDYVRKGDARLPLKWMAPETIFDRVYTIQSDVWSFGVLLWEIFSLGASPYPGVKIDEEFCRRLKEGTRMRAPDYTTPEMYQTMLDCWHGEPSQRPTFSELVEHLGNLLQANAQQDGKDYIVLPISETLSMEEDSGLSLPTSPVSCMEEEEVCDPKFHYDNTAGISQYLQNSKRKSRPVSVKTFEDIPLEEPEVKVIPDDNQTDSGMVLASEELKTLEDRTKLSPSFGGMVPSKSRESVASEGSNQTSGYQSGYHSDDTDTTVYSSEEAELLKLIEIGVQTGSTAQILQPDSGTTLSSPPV
Procedure: Binding of fibronectin-based scaffold protein to cell-surface KDR and Flk-1 was analyzed simultaneously on VEGF-R2-expressing and control cells by flow cytometry. CHO-pcDNA3 cells (control) were released from their dishes with trypsin-EDTA, washed in Dulbecco's PBS without calcium and magnesium (D-PBS⁻; Invitrogen), and stained for 30 minutes at 37° C. with 1.5 μM CMTMR (5-(and-6)-(((4-chloromethyl)benzoyl)amino)-tetramethylrhodamine) (Molecular Probes). The cells were washed in D-PBS⁻ and incubated for a further 30 minutes at 37° C., and then resuspended in blocking buffer (D-PBS⁻/10% fetal bovine serum) on ice. CHO-KDR or CHO-Flk cells were treated identically except that CMTMR was omitted. […] For cells treated with an anti-KDR mouse monoclonal antibody (Accurate Chemical, Westbury, N.Y.) or an anti-flk-1 goat polyclonal antibody (R&D Systems), the anti-His₆ step was omitted, and antibody binding was detected with the species-appropriate Alexa Fluor 488 conjugated secondary antibody (Molecular Probes). Following staining, cells were resuspended in 200 μl/well D-PBS⁻/1% FBS/1 μg/ml 7-aminoactinomycin D (7-AAD; Molecular Probes) and analyzed by flow cytometry on a FACSCalibur (Becton Dickinson, San Jose, Calif.) equipped with a […] laser. […]

Binder | Binding to 1 nM KDR, % [3] [%] | Binding to 1 nM Flk-1, % [4] [%] | also measured
E2 (designed binder, 10Fn3 variant, residues 1-8 deleted) EVVAATPTSLLISWRHPHFPTRYYRITYGETGGNSPVQEFTVPLQPPTATISGLKPGVDYTITGYAVTDGPNDRLLNIPISINYRT |  |  | Binding to 1 nM FLK, % [1]: 10%
2′Del F6 PR4 (designed binder) EVVAATPTSLLISWRHPHFPTRYYRITYGETGGNSPVQEFTVPLQPPTATISGLKPGVDYTITGYAVTLGWNDHELYIPISINYRT |  |  | Binding to 1 nM KDR, % [2]: 22%
D9 (designed binder, Del 1-8; assay tags not included) EVVAATPTSLLISWRHPHFPTRYYRITYGETGGNSPVQEFTVPLQPPTATISGLRPGVDYTITGYAVTEERNGRVLFTPISINYRT | 31 | 40 | 
F6 (designed binder, Del 1-8; assay tags not included; Framework 4 printed as ISTNYRT) EVVAATPTSLLISWRHPHFPTRYYRITYGETGGNSPVQEFTVPLQPPTATISGLKPGVDYTITGYAVTVEQNGRVLMTPISTNYRT | 37 | 2 | 
3′E10 PR4 (designed binder) EVVAATPTSLLISWRHPHFPTRYYRITYGETGGNSPVQEFTVPLQPPTATISGLKPGVDYTITGYAVTAGHKDQELLTPISINYRT |  |  | Binding to 1 nM KDR, % [2]: 21%
F5 (designed binder, Del 1-8; assay tags not included) EVVAATPTSLLISWRHPHFPTRYYRITYGETGGNSPVQEFTVPLQPPTATISGLRPGVDYTITGYAVTVERDGRELNIPISINYRT | 12 | 8 | 
wild type fibronectin-based scaffold protein (tenth type III domain of human fibronectin) (other, E. coli produced with His6 tag; also called WT; 10Fn3) VSDVPRDLEVVAATPTSLLISWDAPAVTVRYYRITYGETGGNSPVQEFTVPGSKSTATISGLKPGVDYTITGYAVTGRGDSPASSKPISINYRT |  |  | binding result [5]: no binding

From patent US20080220049A1 (published 2008)
